What all share (assay): SPR; Biacore 2000; biotinylated peptides (about 250 RU) held on streptavidin cells, AR LBD injected at 10 μM, 5 μM, 1 μM and 300 nM, 10 μl/min; HBS-P (10 mM HEPES pH 7.4, 150 mM NaCl, 0.005% Surfactant P20); SMRT2 peptide cell subtracted as background; two-state conformational change model, Kd calculated from rate constants
Common to all, as to conditions: both partners purified

The target in assay [1] is T1, biotinylated LxxLL peptide (biotin tag attached through the additional C-terminal SGSGK).
T1 construct: also in PDB 1T7F; The SGSGK-biotin form is told for the FRET assay; source: synthetic peptide (Anaspec)

Assay [2] concerns the target T2, biotinylated FxxLW peptide (biotin tag attached through the additional C-terminal SGSGK).
T2 construct: also in PDB 1T79; The SGSGK-biotin form is told for the FRET assay; source: synthetic peptide (Anaspec)

The target in assay [3] is T3, biotinylated FxxLF peptide (biotin tag attached through the additional C-terminal SGSGK).
T3 construct: also in PDB 1T7R; The SGSGK-biotin form is told for the FRET assay; source: synthetic peptide (Anaspec)

B1: androgen receptor ligand-binding domain (AR LBD), DHT-bound (domain or fragment)
chain: GSPGISGGGGGSHIEGYECQPIFLNVLEAIEPGVVCAGHDNNQPDSFAALLSSLNELGERQLVHVVKWAKALPGFRNLHVDDQMAVIQYSWMGLMVFAMGWRSFTNVNSRMLYFAPDLVFNEYRMHKSRMYSQCVRMRHLSQEFGWLQITPQEFLCMKALLLFSIIPVDGLKNQKFFDELRMNYIKELDRIIACKRKNPTSCSRRFYQLTKLLDSVQPIARELHQFTFDLLIKSHMVSVDFPEMMAEIISVQVPKILSGKVKPIYFHTQ
What is called Kd is a measure of binding affinity in units of concentration. For the molecule B1, the Kd in assay [1] is 1800 nM; in assay [2], 920 nM; in assay [3] it was 1100 nM.

These data come from PMC509409, “Recognition and Accommodation at the Androgen Receptor Coactivator Binding Interface” (PLoS Biology, 2004).
